The record followed here is article PMC3406077 (2012).

To fix the notation:
B1: wild-type full-length (C24-P237) pallilysin [Treponema pallidum subsp. pallidum (Nichols strain)] / plasminogen-depleted human fibrinogen [human] (parent complex)
chain 1: CFQHGHVPPRRIPPHDTFGALPTAALPSNARDTAAHPSDTADNTSGSSTTTDPRSHGNAPPAPVGGAAQTHTQPPVQTAMRIALWNRATHGEQGALQHLLAGLWIQTEISPNSGDIHPLLFFDREHAEITFSRASVQEIFLVDSAHTHRKTVSFLTRNTAISSIRRRLEVTFESHEVIHVRAVEDVARLKIGSTSMWDGQYTRYHAGPASAPSP
chain 2: ADSGEGDFLAEGGGVRGPRVVERHQSACKDSDWPFCSDEDWNYKCPSGCRMKGLIDEVNQDFTNRINKLKNSLFEYQKNNKDSHSLTTNIMEILRGDFSSANNRDNTYNRVSEDLRSRIEVLKRKVIEKVQHIQLLQKNVRAQLVDMKRLEVDIDIKIRSCRGSCSRALAREVDLKDYEDQQKQLEQVIAKDLLPSRDRQHLPLIKMKPVPDLVPGNFKSQLQKVPPEWKALTDMPQMRMELERPGGNEITRGGSTSYGTGSETESPRNPSSAGSWNSGSSGPGSTGNRNPGSSGTGGTATWKPGSSGPGSTGSWNSGSSGTGSTGNQNPGSPRPGSTGTWNPGSSERGSAGHWTSESSVSGSTGQWHSESGSFRPDSPGSGNARPNNPDWGTFEEVSGNVSPGTRREYHTEKLVTSKGDKELRTGKEKVTSGSTTTTRRSCSKTVTKTVIGPDGHKEVTKEVVTSEDGSDCPEAMDLGTLSGIGTLDGFRHRHPDEAAFFDTASTGKTFPGFFSPMLGEFVSETESRGSESGIFTNTKESSSHHPGIAEFPSRGKSSSYSKQFTSSTSYNRGDSTFESKSYKMADEAGSEADHEGTHSTKRGHAKSRPVRGIHTSPLGKPSLSP
chain 3: QGVNDNEEGFFSARGHRPLDKKREEAPSLRPAPPPISGGGYRARPAKAAATQKKVERKAPDAGGCLHADPDLGVLCPTGCQLQEALLQQERPIRNSVDELNNNVEAVSQTSSSSFQYMYLLKDLWQKRQKQVKDNENVVNEYSSELEKHQLYIDETVNSNIPTNLRVLRSILENLRSKIQKLESDVSAQMEYCRTPCTVSCNIPVVSGKECEEIIRKGGETSEMYLIQPDSSVKPYRVYCDMNTENGGWTVIQNRQDGSVDFGRKWDPYKQGFGNVATNTDGKNYCGLPGEYWLGNDKISQLTRMGPTELLIEMEDWKGDKVKAHYGGFTVQNEANKYQISVNKYRGTAGNALMDGASQLMGENRTMTIHNGMFFSTYDRDNDGWLTSDPRKQCSKEDGGGWWYNRCHAANPNGRYYWGGQYTWDMAKHGTDDGVVWMNWKGSWYSMRKMSMKIRPFFPQQ
chain 4: YVATRDNCCILDERFGSYCPTTCGIADFLSTYQTKVDKDLQSLEDILHQVENKTSEVKQLIKAIQLTYNPDESSKPNMIDAATLKSRKMLEEIMKYEASILTHDSSIRYLQEIYNSNNQKIVNLKEKVAQLEAQCQEPCKDTVQIHDITGKDCQDIANKGAKQSGLYFIKPLKANQQFLVYCEIDGSGNGWTVFQKRLDGSVDFKKNWIQYKEGFGHLSPTGTTEFWLGNEKIHLISTQSAIPYALRVELEDWNGRTSTADYAMFKVGPEADKYRLTYAYFAGGDAGDAFDGFDFGDDPSDKFFTSHNGMQFSTWDNDNDKFEGNCAEQDGSGWWMNKCHAGHLNGVYYQGGTYSKASTPNGYDNGIIWATWKTRWYSMKKTTMKIIPFNRLTIGEGQQHHLGGAKQAGDV

The assay covers variants of B1. Nature of the assay: ELISA; 20 µg protein per well; fibrinogen 0.5 µg per well; parent: 3.2; read off a plot. A general note: ELISA stands for enzyme-linked immunosorbent assay.
Consider chain 1 H175A, for which the response is ~3.5 O.D. (492 nm).

Take chain 1 E176A: the response is ~3.5 O.D. (492 nm).

Regarding chain 1 H179A, the response is ~3.1 O.D. (492 nm).
